Measurements from the DeepSol protein solubility set.

Experiment: soluble on expression in E. coli; label from the status in PepcDB or PDB records

Sequence | soluble on expression in E. coli
MSLTNRSGKDFADEKLLTVLAEVERDLEITYDDLQKQAIIGAMNQQFFILTGGPGTGKTTIINGFIETYARLHQLDLDPDHYNDDVFPILLAAPTGRASRRMNELTGLPAATIHRHLGLGQDEAEDALGNELSGALLIVDEFSMVDTWLANKLFQAIPGSMKVLLVGDADQLPSVGPGQIFADLLKIPEIPSVKLDKIFRQGDDSTITDLAHHIKDGQLPSDFTAKKPDRSYFEVSANFVPQMVEQIASAWQKRGNNPFELQILAPMYKGMAGINAMNVLLQNLFNPLNDRLEFALGDMKFREGDKVLHLVNDAEANVFNGDLGQIVELIAAKYTDSKQDELVMDFDGQELTYPRAEWYKITLAYAMSIHKSQGSEFSTVIVPMVSSYSRMLERNLLYTAITRAKQSLILLGEERAFAQAVAREGANRKTYLIERFMGENEGHHHHHH | not soluble
MSLTPDLLNFKKGWMSILDEPGEPPSPSLTTTSTSQWKKHWFVLTDSSLKYYRDSTAEEADELDGEIDLRSCTDVTEYAVQRNYGFQIHTKDAVYTLSAMTSGIRRNWIEALRKTVRPTSAPDVTEGHHHHHH | soluble
MSLTPVLDKIDSDVSAATDRLLELLRIPSISTDPAYKADCDAAADWLVKDLNSIGIKAEKRETPGHPMVVGHVGEENTKGPHLLFYGHYDVQPVDPLNLWNTPPFEPQLEETPNGTVIRGRGASDDKGQLMTFVEACRAWQAVHGTLPCRITFFFEGEEESGSPSLIPFLEAAKEELSADIALICDTSMVARGVPSVASQLRGMMKDEFTLIGPKIDLHSGHYGGPGLNPLREISHIIASFHDPDTGAVAVEGFYEGVPEVPADILRQWEGCGFDEKDYLSNAGYTEAHGEKKYSTLEQQWARPTLEINGLWGGYQGAGTKTVIPSEAHCKITCRLVGDMDPADLRQKIRKHVEDRLPTDCTVKWDLDLDGAPAYVIDTTRPEFEAARGALTEEWNREAVFSGMGGSIPVAGYFKSILGMDAMLIGFANEDDAIHSPNEKYDLESFHKGIRSWARVLDALSKA | soluble
MSLTRIQLVISDVDGTLVTTDKRLTDRARDAVSRLEASGVGFTLTSSRPPVGMRMYSDPLGITLPLGPFNGSSIVTPTLDVLEQHLIPDSAATISIELFERSGIDIWLFTNDNWYIRRDDGKYVVHEERTIRFSPTMAEDLTPFAGKACKIVGVSADFALLKRCEPELQAALGDRALAVRSQDYYLDVTPPGRSKGTFVATMAERLGIAADAIATIGDMQNDLPMFGVSGLPIAMGNAADDIKQQAAHVTGRNDDDGFAAAIDFILEHNARVGEGHHHHHH | soluble
MSLTSEEERAEQAMAAISQIEPTRRLFVWTLTHGIVEYGSARAPAQHNTVSPQAAIEWVVRRGEPGIFIFKDLHPFIDLAPVKRWLRDAVAGFKGTDKVLVLMSPIQQIPTELEKEVVVVEFPLPGPGELNELLNVHLSQAPDKLRILSDAGREKMVKAALGLTKDEADKVYRKAEVVSGRLTEAEVDIVLSEKKQIIKRNGILEYLEFDDEGHHHHHH | not soluble
MSLTSLVSAVGSHHVTTDPDVLAGRSVDHTGRYRGRASALVRPGSAEEVAEVLRVCRDAGAYVTVQGGRTSLVAGTVPEHDDVLLSTERLCVVSDVDTVERRIEIGAGVTLAAVQHAASTAGLVFGVDLSARDTATVGGMASTNAGGLRTVRYGNMGEQVVGLDVALPDGTVLRRHSRVRRDNTGYDLPALFVGAEGTLGVITALDLRLHPTPSHRVTAVCGFAELAALVDAGRMFRDVEGIAALELIDGRAAALTREHLGVRPPVEADWLLLVELAADHDQTDRLADLLGGARMCGEPAVGVDAAAQQRLWRTRESLAEVLGVYGPPLKFDVSLPLSAISGFARDAVALVHRHVPDSPEALPLLFGHIGEGNLHLNVLRCPPDREPALYAKMMGLIAECGGNVSSEHGVGSRKRAYLGMSRQANDVAAMRRVKAALDPTGYLNAAVLFDEGHHHHHH | not soluble
MSLTSLYTGTFVDTPTPAGLRVRRNHLLAVSAQGAIAHIAPVSDPASQALLASAPPPTALGRHSFFLPTYADLHLHAAQYLYAGTGLDLPLLEWLERYAYRAEERVDADEQLAERLYGRLVQRLRENGTGCVVFFGTIGVQANLILARKAQEAGIRAFIGKLSMDESPRPSYGEASPAASLSSLNSFLDSMESYLSQFPSHRRLVQPIITPRFVPVCSDELLQGLAKVAQDRNVRLQSHMCEGRDQIDMSLKTKGLDDEKVFDKFGLLGPQTLQAHVTYLDDKLIPLIKERGVTIAHCPLSNQYLSERQFPLREALDASLSLGLGTDIAGGYSPSIHTAMRQAVIISRMREGDRCESLGCSFGTVKKEEEGGGRNLRVDWKEAVWAATRGGKAGMGLGGALEVGMEFDVQLIELASEENPTGTGPLDLFDLADSQVDTDTDEWWFDALERWWSNGDERNRKGMWVQGAKIAEGHHHHHH | soluble
MSLTSQVSSTTEQADEPVVGEQRKPAGAKDVRRLDRVIIRFAGDSGDGMQLTGDRFTSETASFGNDLSTLPNFPAEIRAPAGTLPGVSSFQLHFADHDILTPGDAPNVLVAMNPAALKANVSDLPRGAEVIVNTDEFTKRAMQKVGYGTSPLEDGSLDGYSVHPVPLTTLTVEALKEFELSRKEAERSKNMFALGLLSWMYHRPTEGTEKFLTTKFAKKPAIAAANIAAFRAGWNFGETTEDFAVSYEVAPAQSAFPAGTYRNISGNLALSYGLIAASRQADLPLYLGSYPITPASDILHELSKHKNFGVRTFQAEDEIAGIGAALGAAFGGSLAVTTTSGPGVALKSETIGLAVSLELPLLVVDIQRGGPSTGLPTKTEQADLLQAMYGRNGEAPVPVVAPRTPADCFEAAIEAARIALTYRTPVFLLSDGYLANGSEPWRIPETDGLPDLRVRFAQGPNHTLDDGTEVFWPYKRDPGTLARPWAIPGTPGLEHRIGGIEKQDGTGNISYDPANHDFMVRTRQAKIDGIDVPDIEVDDPDGASALVLGWGSTYGPITAAVRRLRTAGESIAQAHLRHLNPFPSNLGAVLKGYDKVVIPEMNLGQLATLIRAKYLVDAHSYNQVNGMPFKAEQLATALKEAIDEGHHHHHH | not soluble
MSLTSTIIDVRAKLYTWKGDVQKIHENFCTNAADLVNQDNISNDRWATYKFLSWLVVEVETSDGHIGIGNAALSPKPCKSVVDNYLKPAIIGESIWDYEHIWQKMYRQTLAWGRKGIGMTAISAVDIAIWDALGKTVKQPVFKLLGGKTKSKLPCYASKLYSQPLDSLAKEAKDYLDQGFKAMKLRLGWGPNDGAEGMRKNIELIRTVRSVVGEDVDLMADVYMGWTFEYAKRMMRLIDNENLRWLEEPVIADDIDGYADLKASCQTPISGGEHEYTLFGFRQLLEKKAVDVVQFDTNRVGGITQAHKICALAEAFQIPVIPHAGQVHNFHISMSSINAPIVEYFPFWPVEIGNELFWYIFDGEPQAKDGYIELDDTKPGLGIELSEKYLKDFVIEVEGHHHHHH | soluble
MSLTTKDHSLATESPTLQQLGEFAVIDRLVRGRRQPATVLLGPGDDAALVSAGDGRTVVSTDMLVQDSHFRLDWSTPQDVGRKAIAQNAADIEAMGARATAFVVGFGAPAETPAAQASALVDGMWEEAGRIGAGIVGGDLVSCRQWVVSVTAIGDLDGRAPVLRSGAKAGSVLAVVGELGRSAAGYALWCNGIEDFAELRRRHLVPQPPYGHGAAAAAVGAQAMIDVSDGLLADLRHIAEASGVRIDLSAAALAADRDALTAAATALGTDPWPWVLSGGEDHALVACFVGPVPAGWRTIGRVLDGPARVLVDGEEWTGYAGWQSFGEPDNQGSLGEGHHHHHH | soluble
MSLTVERVSAPTPAAFVDAANAAFRNGAVLSVQARCEVEYNGRTSGYLGDGDRLLVAKPDGTFLVHQPTGHKPVNWMPGGGTVEARTSQGDAVLLARRSNPTERVETRLHEVYGVTRFDAEDGATYEESGTEAEMHEYIEANPDALEAGLRIVEHERETKYGFIDFYAVDGDGTPVVIEVKRIQATLNHFDQLKRYVDRYAETNDDVRGMLVAPSASERVTRALRDNGLEFVALAEFGLDAKGATEAKLTDFEGHHHHHH | soluble
MSLVEDGKATLGLRNFYINRNFTNPSNPQSKAEEWTQSFILDARSGFTEGPIGFGVDVLGLWSVKLDGGGGTYGTALLPRHDDGRPADDYGRLAVAGKARISKTELKIGEWMPVLPILRSDDGRSLPQTFRGGQVTSNEIAGLTLYGGQFRGNSPRNDASMEDMSYGGGVSDRFNFVGGEYKFNQDRTQVGLWNAVLKDVYQQQYLQLSHSQPVGDWTLGANLGYFHGDEDGSERAGQLDNKTYSGMFSAKYGGSTFWVGLQKVDGDTWMRVNGTSGGTLANDSYNSSFDNANERSWQVRHDFNFVTVGVPGLTLMNRYISGRDVHSGGVTDGKEWVRETELAYVIQSGAFKDLSVKWRNSSIRRDYSNNEFDENRLIFNYPLSLLEGHHHHHH | soluble
MSLVLYRKLKKAKSLEEIKNTFKNLTKSISSLVMRGMHFYDLSNILTEIYDYLVVKVIEMEKERFEREWGKLPSFAWVHMGSSARKEQVIATDQDNAIVHEGDGEGLSQFAESVNNALDYVGIPKCRGGYMAMNWCKSVEEWKSVFSEWFIKLTPDNLRFLSVFLDLRVIYGDEKLCKELIEHIKREHTSQSLRYLAYDATIAEPPLGLFGLRMKKEIDLKMNGIYPIVNGVRVLALEHGLIEVTNTRERLEELKEAHVMDADLAESLKETYEFLQDLRLRLQAKEVVEGKKADNVIKVSEIDRIEAFVLKEGFKVIKKFQNFLKGHYSIERGLEGHHHHHH | soluble
MSLVMDSLIIKQLIKSTFDIPLQVTYPNGNIETYNGSNPHVKLKLNKNFSVSELSKDPSIVLGEAVMDGDIEIYGSIQELILSAYRCGDSFLRNSKFSKLIPKQFHDKKHSKSDIQKHYDIGNDFYKLWLDDTMTYSCAYFKHENDSLEQAQLNKVHHILNKLNAQPGGKLLDIGCGWGTLIITAAKEYGLNATGITLSEEQASFITKRIKEEGLENKVTVLIKDYRDIRETYDYITSVGMFEHVGKENLSQYFQTISKRLNINGLALIHGITGQVGGNHGSGTNSWINKYIFPGGYIPRLTENLNHIASAGLQIADLEPLRRHYQKTLELWTKNFHNALPEVQKTHDKRFINMWDLYLQSCAASFESGNIDIFQYLLSKGVSKDTMPMTRDYMYSANEGHHHHHH | soluble
MSLVNSLTHYEILRIPSDATQDEIKKAYRNRLLNTHPDKLSKSIHDTVSNVTINKIQDAYKILSNIKTRREYDRLILENYKRQGFHNCGDGLDEFSLDDFSFDEDKLEFMMNCPRCQFVGGFHFSESLLDECIDNVDAMERSHSGYQLLTQCSACSLWLKVNFDIEEEQEGQ | not soluble
MSLVPAFPHSTSPTTTVIAVPPALSLPVIETDFPRQLHPYWPRLQEKTRSWLLEKRLMPADKVEEYADGLCYTDLMAGYYIGAPDEVLQAIADYSAWFFVWDDRHDRDVIHRRATAWRQLRFQLHTALDSPRDHLHHRDPLVAGFADSMVRLYSFLGKKWNARFACHFHAVIEAYDREFHNRTRGIVPTVEEYLELRRLTFAHRIWTDLLEPSARHEIPAGVREHPGYRRAALLSQEFAAWYNDLCSLPKEIAGDEVHNLGISLIHHEGLTLEEAVTEVRRRVEECIAEFLVAEKEAVHLADGLADGTRAGHELSDAVKACVANMRNWFSTVYWFHHESGRYRVDSWDDRSTPPYVNNEAAGEGHHHHHH | soluble
MSLVQSINTKVDLTIDATAYTGLTDYGKIMIGDKGFEFFNSRDVRKFVQIPWEEVDQVIVSVMLKGKWIPRYAIKTKRNGTYTFASKRPKEVLRKIRVYVDPANMVSSLSFFDVMKRSFRSIFSKKKNKNKEGHHHHHH | not soluble
MSLVRQLIGRTLSGTVTMCAGPFRSVLNMLHRPQWETAMIAPLPAVDMRVICAGHVNWDVTLHVDHLPKPDGEGRITDRSQSSGGSASNAAVALAGLDADPLVLGSVGRDDHGTMARRELAATGVETLLIESDEATAVKYLIVDENGDVAVLGNDGANEAFNASDLPAETLAEADHLHLTGQNPTTAATLARDAAAADVPVSFDPGRRLPYRDYSSVLSHAEILFCNDREADHARDSGLFETVPTVVVKHGDCGATAHIGDQTVTNAGYPIESVDTAGAGDAFAAGYLLASAQETDPERALAVANACGALAAQSSGARTTLDWESVWELVDSGQEGHHHHHH | soluble
